Source: IntAct's records for PubMed 18625701

B1: Brefeldin A-inhibited guanine nucleotide-exchange protein 2 (Homo sapiens), Q9Y6D5 (parent)
chain: MQESQTKSMFVSRALEKILADKEVKRPQHSQLRRACQVALDEIKAEIEKQRLGTAAPPKANFIEADKYFLPFELACQSKSPRVVSTSLDCLQKLIAYGHITGNAPDSGAPGKRLIDRIVETICSCFQGPQTDEGVQLQIIKALLTAVTSPHIEIHEGTILQTVRTCYNIYLASKNLINQTTAKATLTQMLNVIFTRMENQVLQEARELEKPIQSKPQSPVIQAAAVSPKFVRLKHSQAQSKPTTPEKTDLTNGEHARSDSGKVSTENGDAPRERGSSLSGTDDGAQEVVKDILEDVVTSAIKEAAEKHGLTEPERVLGELECQECAIPPGVDENSQTNGIADDRQSLSSADNLESDAQGHQVAARFSHVLQKDAFLVFRSLCKLSMKPLGEGPPDPKSHELRSKVVSLQLLLSVLQNAGPVFRTHEMFINAIKQYLCVALSKNGVSSVPDVFELSLAIFLTLLSNFKMHLKMQIEVFFKEIFLNILETSTSSFEHRWMVIQTLTRICADAQCVVDIYVNYDCDLNAANIFERLVNDLSKIAQGRSGHELGMTPLQELSLRKKGLECLVSILKCMVEWSKDLYVNPNHQTSLGQERLTDQEIGDGKGLDMARRCSVTSMESTVSSGTQTTVQDDPEQFEVIKQQKEIIEHGIELFNKKPKRGIQFLQEQGMLGTSVEDIAQFLHQEERLDSTQVGDFLGDSARFNKEVMYAYVDQLDFCEKEFVSALRTFLEGFRLPGEAQKIDRLMEKFAARYIECNQGQTLFASADTAYVLAYSIIMLTTDLHSPQVKNKMTKEQYIKMNRGINDSKDLPEEYLSSIYEEIEGKKIAMKETKELTIATKSTKQNVASEKQRRLLYNLEMEQMAKTAKALMEAVSHAKAPFTSATHLDHVRPMFKLVWTPLLAAYSIGLQNCDDTEVASLCLEGIRCAIRIACIFGMQLERDAYVQALARFSLLTASSSITEMKQKNIDTIKTLITVAHTDGNYLGNSWHEILKCISQLELAQLIGTGVKTRYLSGSGREREGSLKGHTLAGEEFMGLGLGNLVSGGVDKRQMASFQESVGETSSQSVVVAVDRIFTGSTRLDGNAIVDFVRWLCAVSMDELASPHHPRMFSLQKIVEISYYNMNRIRLQWSRIWHVIGDHFNKVGCNPNEDVAIFAVDSLRQLSMKFLEKGELANFRFQKDFLRPFEHIMKKNRSPTIRDMAIRCIAQMVNSQAANIRSGWKNIFAVFHQAASDHDGNIVELAFQTTCHIVTTIFQHHFPAAIDSFQDAVKCLSEFACNAAFPDTSMEAIRLIRFCGKYVSERPRVLQEYTSDDMNVAPGDRVWVRGWFPILFELSCIINRCKLDVRTRGLTVMFEIMKSYGHTFEKHWWQDLFRIVFRIFDNMKLPEQLSEKSEWMTTTCNHALYAICDVFTQFYEALNEVLLSDVFAQLQWCVKQDNEQLARSGTNCLENLVISNGEKFSPEVWDETCNCMLDIFKTTIPHVLLTWRPVGMEEDSSEKHLDVDLDRQSLSSIDKNPSERGQSQLSNPTDDSWKGRPYANQKLFASLLIKCVVQLELIQTIDNIVFYPATSKKEDAEHMVAAQQDTLDADIHIETEDQGMYKYMSSQHLFKLLDCLQESHSFSKAFNSNYEQRTVLWRAGFKGKSKPNLLKQETSSLACCLRILFRMYVDENRRDSWEEIQQRLLTVCSEALAYFITVNSESHREAWTSLLLLLLTKTLKINDEKFKAHASMYYPYLCEIMQFDLIPELRAVLRKFFLRIGVVYKIWIPEEPSQVPAALSPVW

Variants of: B1
Details: with kap3_human PRKAR2B

effect of a mutation on the interaction	Variant
disrupting interaction	V534W
disrupting interaction	V289W
